# Laboratory results from PMC11672753 (Plant Biotechnology Journal, 2024).
# B1: M15-YTE (antibody, V domains shown)
# VH: QVQLLESGGGLVQPGGSLRLSCAASGFTFSSYAMSWVRQAPGKGLEWASAISGSGGSTYYADSVEGRFTISRDNSKNTLYLQMNSLRAEDTAVYYCAKDTGYCGDDCYIKLIRGGPDYWGQGTLVTVSS
# VL: DIVMTQSPLSLPVTLGQPASISCRSSQSLVYSDGNTFLNWFQQRPGQSPRRLIYQVSNRDSGVPDRFSGSGSGTDFTLKISRVEAEDVGVYYCMQGTHWPRTFGQGTKLEIK
# B2: M15 (plant-produced COVA2-15, conventional IgG1) (antibody, V domains shown)
# VH: QVQLLESGGGLVQPGGSLRLSCAASGFTFSSYAMSWVRQAPGKGLEWASAISGSGGSTYYADSVEGRFTISRDNSKNTLYLQMNSLRAEDTAVYYCAKDTGYCGDDCYIKLIRGGPDYWGQGTLVTVSS
# VL: DIVMTQSPLSLPVTLGQPASISCRSSQSLVYSDGNTFLNWFQQRPGQSPRRLIYQVSNRDSGVPDRFSGSGSGTDFTLKISRVEAEDVGVYYCMQGTHWPRTFGQGTKLEIK
# B3: M15-FX (antibody, V domains shown)
# VH: QVQLLESGGGLVQPGGSLRLSCAASGFTFSSYAMSWVRQAPGKGLEWASAISGSGGSTYYADSVEGRFTISRDNSKNTLYLQMNSLRAEDTAVYYCAKDTGYCGDDCYIKLIRGGPDYWGQGTLVTVSS
# VL: DIVMTQSPLSLPVTLGQPASISCRSSQSLVYSDGNTFLNWFQQRPGQSPRRLIYQVSNRDSGVPDRFSGSGSGTDFTLKISRVEAEDVGVYYCMQGTHWPRTFGQGTKLEIK
# B4: S15-YTE (Fc fusion)
# VH: QVQLLESGGGLVQPGGSLRLSCAASGFTFSSYAMSWVRQAPGKGLEWASAISGSGGSTYYADSVEGRFTISRDNSKNTLYLQMNSLRAEDTAVYYCAKDTGYCGDDCYIKLIRGGPDYWGQGTLVTVSS
# VL: DIVMTQSPLSLPVTLGQPASISCRSSQSLVYSDGNTFLNWFQQRPGQSPRRLIYQVSNRDSGVPDRFSGSGSGTDFTLKISRVEAEDVGVYYCMQGTHWPRTFGQGTKLEIK
# B5: S15-HDEL (Fc fusion)
# VH: QVQLLESGGGLVQPGGSLRLSCAASGFTFSSYAMSWVRQAPGKGLEWASAISGSGGSTYYADSVEGRFTISRDNSKNTLYLQMNSLRAEDTAVYYCAKDTGYCGDDCYIKLIRGGPDYWGQGTLVTVSS
# VL: DIVMTQSPLSLPVTLGQPASISCRSSQSLVYSDGNTFLNWFQQRPGQSPRRLIYQVSNRDSGVPDRFSGSGSGTDFTLKISRVEAEDVGVYYCMQGTHWPRTFGQGTKLEIK
# B6: M15-HDEL (antibody, V domains shown)
# VH: QVQLLESGGGLVQPGGSLRLSCAASGFTFSSYAMSWVRQAPGKGLEWASAISGSGGSTYYADSVEGRFTISRDNSKNTLYLQMNSLRAEDTAVYYCAKDTGYCGDDCYIKLIRGGPDYWGQGTLVTVSS
# VL: DIVMTQSPLSLPVTLGQPASISCRSSQSLVYSDGNTFLNWFQQRPGQSPRRLIYQVSNRDSGVPDRFSGSGSGTDFTLKISRVEAEDVGVYYCMQGTHWPRTFGQGTKLEIK
# B7: S15-FX (Fc fusion)
# VH: QVQLLESGGGLVQPGGSLRLSCAASGFTFSSYAMSWVRQAPGKGLEWASAISGSGGSTYYADSVEGRFTISRDNSKNTLYLQMNSLRAEDTAVYYCAKDTGYCGDDCYIKLIRGGPDYWGQGTLVTVSS
# VL: DIVMTQSPLSLPVTLGQPASISCRSSQSLVYSDGNTFLNWFQQRPGQSPRRLIYQVSNRDSGVPDRFSGSGSGTDFTLKISRVEAEDVGVYYCMQGTHWPRTFGQGTKLEIK
# B8: S15 (plant-produced COVA2-15, single-chain (sc)Fv-Fc format) (Fc fusion, human)
# VH: QVQLLESGGGLVQPGGSLRLSCAASGFTFSSYAMSWVRQAPGKGLEWASAISGSGGSTYYADSVEGRFTISRDNSKNTLYLQMNSLRAEDTAVYYCAKDTGYCGDDCYIKLIRGGPDYWGQGTLVTVSS
# VL: DIVMTQSPLSLPVTLGQPASISCRSSQSLVYSDGNTFLNWFQQRPGQSPRRLIYQVSNRDSGVPDRFSGSGSGTDFTLKISRVEAEDVGVYYCMQGTHWPRTFGQGTKLEIK
# Target: T1, SARS-CoV-2 Spike Wuhan (recombinant) (SARS-CoV-2, Wuhan-Hu-1, UniProt P0DTC2)
# T1 construct: also called recombinant SARS-CoV-2 Spike
# Experiment: ELISA; plates coated with 2 μg/mL SARS-CoV-2 Spike Wuhan in PBS; antibodies from 5 nM, 10-fold serial dilutions in PBS/0.5% BSA, 1 h RT; detected with goat anti-human IgG (H + L) peroxidase
# Conditions: both partners purified
row,Binder,binding result
1,B1,binds
2,B2,binds
3,B3,binds
4,B4,binds
5,B5,binds
6,B6,binds
7,B7,binds
8,B8,binds
